Assay results as given in patent US20050037394, “Method for in vitro selection of 2'-substituted nucleic acids” (published 2005).

Legend:
[1] = biological target: T1, IFN-gamma (Homo sapiens, UniProt P01579 P01579:24-161); assay: filter; 1x DPBS, 0.1 mg/ml BSA; Table 21 gives 227.87; details: tags: R&D Systems, Minneapolis; chain copies: 2; label: 5'-32P
[2] = biological target: T1, IFN-gamma; assay: inhibition; IFN-gamma/IFN-gamma-R1 ELISA day 1; day 2 190 nM; details: tags: R&D Systems, Minneapolis; chain copies: 2; label: 5'-32P
Protocol: (§1) IFN-γ ELISA: The following ELISA method was used to measure the ability of IFN-γ aptamers to inhibit hIFN-γ from binding to the IFNγ-R1 receptor. To capture the IFNγ-R1, 175 ng of IFNγ-R1 (R&D systems, Minneapolis, Minn.) in 100 μl of PBS (pH 7.4) was incubated in each well of a Nunc Maxisorb plate (Nunc, Rochester, N.Y.) for 2 hours at room temperature. The solution was discarded and the plate was washed 3 times with 200 μl of TBS-T (25 mM Tris-HCl pH 7.5, 150 mM NaCl and 0.01% Tween −20). The plate was then blocked with 200 μl of 5% nonfat dry milk in TBS-T for 30 minutes at room temperature. After blocking, the plate was washed 3 times with 200 μl of TBS-T. Then, 100 μl of various concentrations of aptamers mixed with 5 nmoles of IFN-γ (R & D Systems) were incubated in appropriate wells for 1.5 hours at room temperature. […] Subsequently, 100 μl of 2 N H₂SO₄ was added to stop the reaction and the plate was read in a SpectraMax 96 well plate reader at […].
(§2) IFNγ-R1 Binding Inhibition with hIFN-γ Aptamers: Five full length and 2 minimized aptamers to IFN-γ were tested for receptor binding inhibition activity using the ELISA method described above. […] IC₅₀'s for the duplicate assays were calculated and are shown in Table 22 below along with Kd values for each of the respective aptamers.

[3] = biological target: T2, Complement C5 full length (Homo sapiens, UniProt P01031;P01031 P01031:19-673,P01031:678-1676); assay: inhibition; 0.2% human serum, sheep erythrocytes, GVB++, 25 C; details: tags: Quidel Corporation, San Diego
Protocol: Hemolysis Assay: The effect of the AMX221.E1 clone on the classical pathway of the complement system was analyzed using a hemolysis assay compared to both ARC186 (Anti-C5 aptamer, positive control) and unselected dRmY pool (negative control). In the assay of hemolytic inhibition, a solution of 0.2% whole human serum was mixed with antibody-coated sheep erythrocytes (Diamedix EZ Complement CH50 Test, Diamedix Corporation, Miami, Fla.) in the presence oftitrated AMX221.E1. The assay was run in veronal-buffered saline containing calcium, magnesium and 1% gelatin (GVB⁺⁺ complement buffer) and incubated for 1 hr at 25° C. After incubation the samples were centrifuged. The optical density at 415 nm (OD₄₁₅) of the supernatant was read. The inhibition of hemolysis activity is expressed as % hemolysis activity compared to control. The IC₅₀ of the clone was calculated to be about 30 nM.

[4] = biological target: T2, Complement C5 full length; assay: filter; 1x DPBS, extent of binding 20%; details: tags: Quidel Corporation, San Diego
[5] = biological target: T1, IFN-gamma; assay: filter; 1x DPBS, 0.1 mg/ml BSA; Table 21 gives 206; details: tags: R&D Systems, Minneapolis; chain copies: 2; label: 5'-32P
[6] = biological target: T1, IFN-gamma; assay: inhibition; ELISA day 2; text assigns ARC873 to F3 but printed sequence matches E3; details: tags: R&D Systems, Minneapolis; chain copies: 2; putative G4
Protocol: as §1, §2

[7] = biological target: T3, VEGF (UniProt P15692-4 P15692-4:27-191); assay: FP; placeholder corrected: dot-blot nitrocellulose/nylon filter in PBS; details: chain copies: 2
Protocol: (§3) Binding assays were performed with trace ³²P-body-labelled transcripts that were incubated with various protein concentrations in silanized wells, these were then passed through a sandwich of a nitrocellulose membrane over a nylon membrane. Protein-bound RNA is visualized on the NC membrane, unbound RNA on the nylon membrane. The proportion binding is then used to calculate affinity (see FIGS. 4, 5, and 6). The nomenclature “mGXG” indicates a substitution of 2′-OH G for 2′-OMe G at position “X”, as numbered sequentially from the 5′-terminus. Thus, mG7G ARC224 is ARC224 with a 2′-OH at position 7. ARC225 is ARC224 with 2′-OMe to 2′-OH substitutions at positions 7, 10, 14, 16, 19, 22 and 24. All constructs (initially identified by SELEX™) were generated by solid-phase chemical synthesis.

[8] = biological target: T1, IFN-gamma; assay: filter; 1x DPBS, 0.1 mg/ml BSA; Table 21 gives 97; details: tags: R&D Systems, Minneapolis; chain copies: 2; label: 5'-32P
[9] = biological target: T1, IFN-gamma; assay: inhibition; IFN-gamma/IFN-gamma-R1 ELISA day 1; day 2 100 nM; details: tags: R&D Systems, Minneapolis; chain copies: 2; label: 5'-32P
Protocol: as §1, §2

[10] = biological target: T3, VEGF; assay: filter; dot-blot in PBS; details: chain copies: 2
Protocol: as §3

[11] = biological target: T1, IFN-gamma; assay: inhibition; IFN-gamma/IFN-gamma-R1 ELISA day 1; day 2 70 nM; details: tags: R&D Systems, Minneapolis; chain copies: 2; label: 5'-32P
Protocol: as §1, §2

[12] = biological target: T1, IFN-gamma; assay: filter; 1x DPBS, 0.1 mg/ml BSA; Table 21 gives 167.31; details: tags: R&D Systems, Minneapolis; chain copies: 2; label: 5'-32P
[13] = biological target: T1, IFN-gamma; assay: inhibition; ELISA day 2; text assigns ARC872 to E3 but printed sequence matches F3; details: tags: R&D Systems, Minneapolis; chain copies: 2; putative G4
Protocol: as §1, §2

[14] = biological target: T1, IFN-gamma; assay: inhibition; IFN-gamma/IFN-gamma-R1 ELISA day 1; day 2 270 nM; details: tags: R&D Systems, Minneapolis; chain copies: 2; label: 5'-32P
Protocol: as §1, §2

[15] = biological target: T1, IFN-gamma; assay: filter; 1x DPBS, 0.1 mg/ml BSA; Table 21 gives 169.28; details: tags: R&D Systems, Minneapolis; chain copies: 2; label: 5'-32P
[16] = biological target: T3, VEGF; assay: competition; 125I-VEGF binding to HUVEC; details: chain copies: 2
Text: FIG. 5 is a plot of ARC224 and ARC225 binding to VEGF. […] The supernatant was removed, the cells were washed, and bound VEGF was counted in a scintillation counter. ARC225 has the same sequence as ARC224 and 2′-OMe to 2′-OH substitutions at positions 7, 10, 14, 16, 19, 22 and 24 numbered from the 5′-terminus.

T1 sequence (P01579 24-161, one chain of several): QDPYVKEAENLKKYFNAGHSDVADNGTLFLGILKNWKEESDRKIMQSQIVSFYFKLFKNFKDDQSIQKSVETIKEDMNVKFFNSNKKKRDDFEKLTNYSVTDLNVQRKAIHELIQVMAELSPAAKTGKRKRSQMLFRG
T3 sequence (P15692 other isoform, or with tags, fused parts or gaps): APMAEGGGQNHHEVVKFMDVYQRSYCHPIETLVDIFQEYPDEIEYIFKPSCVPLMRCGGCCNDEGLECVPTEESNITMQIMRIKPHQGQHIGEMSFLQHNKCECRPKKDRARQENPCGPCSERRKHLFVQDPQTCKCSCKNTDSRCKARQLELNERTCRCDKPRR
T2 sequence (P01031 19-673, chain 1 of 2): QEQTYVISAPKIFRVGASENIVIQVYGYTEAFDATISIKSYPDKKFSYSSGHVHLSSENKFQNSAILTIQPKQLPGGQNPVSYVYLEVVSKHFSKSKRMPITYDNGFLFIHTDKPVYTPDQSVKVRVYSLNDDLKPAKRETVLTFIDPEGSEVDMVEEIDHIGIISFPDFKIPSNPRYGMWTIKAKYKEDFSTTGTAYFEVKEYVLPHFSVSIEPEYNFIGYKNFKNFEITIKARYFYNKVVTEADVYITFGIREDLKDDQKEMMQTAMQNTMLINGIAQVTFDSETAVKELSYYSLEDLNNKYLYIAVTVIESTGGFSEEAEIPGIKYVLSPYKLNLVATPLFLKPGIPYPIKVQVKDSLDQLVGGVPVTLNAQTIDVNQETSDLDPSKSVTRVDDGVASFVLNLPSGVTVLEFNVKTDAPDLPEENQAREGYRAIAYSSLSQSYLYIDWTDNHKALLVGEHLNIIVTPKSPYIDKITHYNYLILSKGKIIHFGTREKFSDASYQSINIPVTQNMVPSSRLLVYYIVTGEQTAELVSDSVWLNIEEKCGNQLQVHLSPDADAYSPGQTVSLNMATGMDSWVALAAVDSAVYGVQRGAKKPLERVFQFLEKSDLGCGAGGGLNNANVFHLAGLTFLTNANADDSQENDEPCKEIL
T2 sequence (P01031 678-1676, chain 2 of 2): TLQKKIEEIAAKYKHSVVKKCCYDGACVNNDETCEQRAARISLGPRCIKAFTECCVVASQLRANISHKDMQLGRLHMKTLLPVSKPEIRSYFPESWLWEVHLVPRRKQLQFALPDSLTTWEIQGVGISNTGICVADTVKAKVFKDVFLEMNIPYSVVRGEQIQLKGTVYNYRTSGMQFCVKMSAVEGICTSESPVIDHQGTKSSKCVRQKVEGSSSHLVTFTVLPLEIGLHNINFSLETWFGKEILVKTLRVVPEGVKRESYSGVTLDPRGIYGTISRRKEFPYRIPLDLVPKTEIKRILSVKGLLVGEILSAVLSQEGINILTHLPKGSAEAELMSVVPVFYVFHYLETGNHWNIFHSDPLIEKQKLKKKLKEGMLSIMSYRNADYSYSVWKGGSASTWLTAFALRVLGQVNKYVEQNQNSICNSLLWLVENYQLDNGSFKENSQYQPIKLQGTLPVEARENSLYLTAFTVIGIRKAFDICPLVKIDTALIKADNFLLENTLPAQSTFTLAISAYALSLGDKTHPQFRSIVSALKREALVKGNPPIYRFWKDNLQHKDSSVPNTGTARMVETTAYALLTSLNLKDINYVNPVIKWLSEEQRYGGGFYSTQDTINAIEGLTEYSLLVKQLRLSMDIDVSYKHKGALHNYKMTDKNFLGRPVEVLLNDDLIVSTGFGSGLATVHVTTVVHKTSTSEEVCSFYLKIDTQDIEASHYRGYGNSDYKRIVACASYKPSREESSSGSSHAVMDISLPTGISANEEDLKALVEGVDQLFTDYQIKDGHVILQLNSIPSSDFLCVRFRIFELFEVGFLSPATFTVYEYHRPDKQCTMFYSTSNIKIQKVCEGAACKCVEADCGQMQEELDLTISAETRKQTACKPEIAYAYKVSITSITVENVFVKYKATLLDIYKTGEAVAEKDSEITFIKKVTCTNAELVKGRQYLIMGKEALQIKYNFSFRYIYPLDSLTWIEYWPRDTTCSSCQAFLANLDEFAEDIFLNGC

B1: ARC818 (AMX(192)_E3) (mixed)
DNA: GGGAGAGGAGAGAACGTTCTACGGGTGGCTGGGGCAGGGGAGGTAGGTAGGGTCGATCGATCGATCATCGATG
modifications: dRmY: deoxy A,G; 2'-OMe C,U (cDNA printed, T=U)
Work on B1 yielded a Kd [1] of 180 nM and an IC50 [2] of 220 nM.

B2: AMX221.E1 (mixed)
DNA: GGGAGAGGAGAGAACGTTCTACCTTGGTTTGGCACAGGCATACATACGCAGGGGTCGATCGATCGATCATCGATG
modifications: dRmY: deoxy A,G; 2'-OMe C,U (cDNA printed, T=U)
For B2, the IC50 [3] was about 30 nM and the Kd [4] was about 140 nM.

B3: ARC819 (AMX(192)_F3) (mixed)
DNA: GGGAGAGGAGAGAACGTTCTACGGGCGGTTGGGGTCGGGGAGGATGGTACAGGGTCGATCGATCGATCATCGATG
modifications: dRmY: deoxy A,G; 2'-OMe C,U (cDNA printed, T=U)
For B3, the Kd [5] was 180 nM.

GGGUGGCUGGGGCAGGGGAGGUAGGUAGGG (mixed, dRmY: deoxy A,G; 2'-OMe C,U) [ARC873] was tested, and the IC50 [6] was 330 nM.

B4: ARC259 (ssRNA)
RNA: ACGCAGUUUGAGAAGUCGCGCGU
modifications: 2'-OMe at all residues; 3'-inverted dT [2'-OMe at 1-23; 3'-inverted dT after nt 23 (not written in sequence); base pair swap at 2 (U>C) and 22 (A>G)]
B4 was tested, and the Kd [7] was 1.4 nM.

B5: ARC821 (AMX(216)_A7) (mixed)
DNA: GGGAGAGGAGAGAACGTTCTACGGGGGTCGTGGGAGTAAGGGGGTGTAGGTAGGTCGATCGATCGATCATCGATG
modifications: dRmY: deoxy A,G; 2'-OMe C,U (cDNA printed, T=U)
Binder B5 has a Kd [8] of 140 nM and an IC50 [9] of 130 nM.

B6: ARC245 (ssRNA)
RNA: AUGCAGUUUGAGAAGUCGCGCAU
modifications: 2'-OMe at all residues; 3'-inverted dT [2'-OMe at 1-23; 3'-inverted dT after nt 23 (not written in sequence)]
For B6, the Kd [10] was 2.1 nM.

B7: ARC789 (AMX(192)_A5) (mixed)
DNA: GGGAGAGGAGAGAACGTTCTACGTTTGCGGTCAGGATGGGGTGGTGGGAGGTCGATCGATCGATCATCGATG
modifications: dRmY: deoxy A,G; 2'-OMe C,U (cDNA printed, T=U)
B7 gave an IC50 [11] of 40 nM and a Kd [12] of 150 nM.

With GGGCGGUUGGGGUCGGGGAGGAUGGUACAGGG (mixed, dRmY: deoxy A,G; 2'-OMe C,U) [ARC872] the IC50 [13] was 200 nM.

B8: ARC820 (AMX(192)_D11) (mixed)
DNA: GGGAGAGGAGAGAACGTTCTACGGGGAGGAGGGTGGGGTAGCAGGTGTGGCAGGTCGATCGATCGATCATCGATG
modifications: dRmY: deoxy A,G; 2'-OMe C,U (cDNA printed, T=U)
B8 gave an IC50 [14] of 280 nM and a Kd [15] of 170 nM.

B9: ARC224 (ssRNA)
RNA: CGAUAUGCAGUUUGAGAAGUCGCGCAUUCG
modifications: 2'-OMe at all residues; 3'-inverted dT [2'-OMe at 1-30; 3'-inverted dT after nt 30 (not written in sequence)]
B9 was tested, and the IC50 [16] was about 2 nM and the Kd [10] was 3.9 nM.
